{"source": "patent US20180147273A1", "about": "(Harvard, published 2018)", "molecular_target": "T1, VipB protein (Vibrio cholerae, VCA0108) (Vibrio cholerae)", "T1 construct": "GenBank NP_232509; The experiments used strain 2740-80; also called 55 kDa band; Band A", "T1 chain": "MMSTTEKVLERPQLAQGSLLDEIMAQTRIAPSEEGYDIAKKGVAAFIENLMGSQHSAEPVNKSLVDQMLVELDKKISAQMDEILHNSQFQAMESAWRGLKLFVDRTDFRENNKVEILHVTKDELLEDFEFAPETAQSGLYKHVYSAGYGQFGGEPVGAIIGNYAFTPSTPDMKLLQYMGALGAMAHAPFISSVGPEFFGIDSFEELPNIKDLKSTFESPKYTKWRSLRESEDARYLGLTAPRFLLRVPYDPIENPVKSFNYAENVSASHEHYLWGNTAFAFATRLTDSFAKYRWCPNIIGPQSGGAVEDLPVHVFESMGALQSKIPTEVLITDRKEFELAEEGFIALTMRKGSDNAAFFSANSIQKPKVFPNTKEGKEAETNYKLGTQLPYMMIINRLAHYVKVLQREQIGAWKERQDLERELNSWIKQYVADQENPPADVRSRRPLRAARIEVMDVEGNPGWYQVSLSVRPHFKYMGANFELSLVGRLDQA", "assay": "purified sheath separated by SDS-PAGE; bands identified by MS", "data": [{"binder": "VipA protein (Vibrio cholerae, VCA0107) (other, GenBank NP_232508; The experiments used strain 2740-80; also called WT VipA; 20 kDa band) MSKEGSVAPKERINIKYIPATGDAQAEVELPLKTLVVGDFKGHAEQTPLEERATVTVDKNNFEAVMRESELKITATVKNKLTDDENAELPVELNFKSLADFAPDAVASQVPELKKLIELREALVALKGPLGNIPAFRERLQSLLNSEESREKLLAELNLLSGQEEPQA", "values": [{"measurement": "binding result", "value": "binds"}]}]}
